Measurements as given in patent publication US20060259987A1 (UNIVERSITY OF UTAH RESEARCH FOUNDATION, published 2006).

Assays:
Assay in all cases: cell-based or functional assay
factor Xa = factor Xa (human, UniProt P00742 41-179; P00742 235-488, limits assumed)
thrombin = thrombin (human, UniProt P00734 328-622)
human thrombin = human thrombin (human, UniProt P00734 328-622)
human factor Xa = human factor Xa (human, UniProt P00742 41-179; P00742 235-488, limits assumed)
human factor Xa, sequence (P00742 41-179 limits assumed, chain 1 of 2): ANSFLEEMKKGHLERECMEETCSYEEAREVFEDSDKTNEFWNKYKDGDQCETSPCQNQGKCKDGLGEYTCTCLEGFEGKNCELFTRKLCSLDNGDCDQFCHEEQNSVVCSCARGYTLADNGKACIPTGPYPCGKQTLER
human factor Xa, sequence (P00742 235-488 limits assumed, chain 2 of 2): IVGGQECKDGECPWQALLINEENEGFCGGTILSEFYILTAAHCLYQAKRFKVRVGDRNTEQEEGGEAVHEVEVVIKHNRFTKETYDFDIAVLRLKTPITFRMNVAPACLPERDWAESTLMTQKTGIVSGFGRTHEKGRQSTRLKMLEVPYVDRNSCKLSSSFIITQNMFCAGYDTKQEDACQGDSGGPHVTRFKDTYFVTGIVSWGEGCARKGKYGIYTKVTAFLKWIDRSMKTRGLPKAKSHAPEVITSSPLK

factor Xa, sequence (P00742 41-179 limits assumed, chain 1 of 2): as the sequence (P00742 41-179 limits assumed, chain 1 of 2) above
factor Xa, sequence (P00742 235-488 limits assumed, chain 2 of 2): as the sequence (P00742 235-488 limits assumed, chain 2 of 2) above

B1: LEAI.477 (other)
chain: SPVDICTAKPRDIPMNPMCIYRSPEKKATEDEGSEQKIPEATNRRVWELSKANSRFATTFYQHLADSKNDNDNIFLSPLSISTAFAMTKLGACNDTLQQLMEVFKFDTISEKTSDQIHFFFAKLNCRLYRKANKASKLVSANRLFGDKSLTFNETYQDISELVYGAKLQPLDFKENAEQSRAAINKWVSNKTEGRITDVIPSEAINELTVLVLVNTIYFKGLWKSKFSPENTRKELFYKADGESCSASMMYQEGKFRYRRVAEGTQVLELPFKGDDITMVLILPKPEKSLAKVEKELTPEVLQEWLDELEEMMLVVHMPRFRIEDGFSLKEQLQDMGLVDLFSPEKSKLPGIVAEGRDDLYVSDAFHKAFLEVNEEGSEAAASTALEAPGRSLNPNRVTFKANRPFLVFIREVPLNTIIFMGRVANPCVK
IC50 fXa/UFH; HCA #4 (factor Xa): 18 nM | IC50 IIa/UFH; HCA #4 (thrombin): 333 nM

B2: LEAI.473 (other)
chain: SPVDICTAKPRDIPMNPMCIYRSPEKKATEDEGSEQKIPEATNRRVWELSKANSRFATTFYQHLADSKNDNDNIFLSPLSISTAFAMTKLGACNDTLQQLMEVFKFDTISEKTSDQIHFFFAKLNCRLYRKANKASKLVSANRLFGDKSLTFNETYQDISELVYGAKLQPLDFKENAEQSRAAINKWVSNKTEGRITDVIPSEAINELTVLVLVNTIYFKGLWKSKFSPENTRKELFYKADGESCSASMMYQEGKFRYRRVAEGTQVLELPFKGDDITMVLILPKPEKSLAKVEKELTPEVLQEWLDELEEMMLVVHMPRFRIEDGFSLKEQLQDMGLVDLFSPEKSKLPGIVAEGRDDLYVSDAFHKAFLEVNEEGSEAAASTALEADGRSLNPNRVTFKANRPFLVFIREVPLNTIIFMGRVANPCVK
IC50 fXa/UFH; HCA #4 (factor Xa): 28 nM | IC50 IIa/UFH; HCA #4 (thrombin): > 1000 nM

B3: LEAQ.514 (other)
chain: SPVDICTAKPRDIPMNPMCIYRSPEKKATEDEGSEQKIPEATNRRVWELSKANSRFATTFYQHLADSKNDNDNIFLSPLSISTAFAMTKLGACNDTLQQLMEVFKFDTISEKTSDQIHFFFAKLNCRLYRKANKASKLVSANRLFGDKSLTFNETYQDISELVYGAKLQPLDFKENAEQSRAAINKWVSNKTEGRITDVIPSEAINELTVLVLVNTIYFKGLWKSKFSPENTRKELFYKADGESCSASMMYQEGKFRYRRVAEGTQVLELPFKGDDITMVLILPKPEKSLAKVEKELTPEVLQEWLDELEEMMLVVHMPRFRIEDGFSLKEQLQDMGLVDLFSPEKSKLPGIVAEGRDDLYVSDAFHKAFLEVNEEGSEAAASTVLEAQGRSLNPNRVTFKANRPFLVFIREVPLNTIIFMGRVANPCVK
IC50 IIa/UFH (HCA #6) (human thrombin): 105 nM | IC50 fXa/UFH (HCA #6) (human factor Xa): 40 nM

B4: LEAI.478 (other)
chain: SPVDICTAKPRDIPMNPMCIYRSPEKKATEDEGSEQKIPEATNRRVWELSKANSRFATTFYQHLADSKNDNDNIFLSPLSISTAFAMTKLGACNDTLQQLMEVFKFDTISEKTSDQIHFFFAKLNCRLYRKANKASKLVSANRLFGDKSLTFNETYQDISELVYGAKLQPLDFKENAEQSRAAINKWVSNKTEGRITDVIPSEAINELTVLVLVNTIYFKGLWKSKFSPENTRKELFYKADGESCSASMMYQEGKFRYRRVAEGTQVLELPFKGDDITMVLILPKPEKSLAKVEKELTPEVLQEWLDELEEMMLVVHMPRFRIEDGFSLKEQLQDMGLVDLFSPEKSKLPGIVAEGRDDLYVSDAFHKAFLEVNEEGSEAAASTALEASGRSLNPNRVTFKANRPFLVFIREVPLNTIIFMGRVANPCVK
IC50 fXa/UFH; HCA #4 (factor Xa): 12 nM | rsd. Xa catG; CA #12; stg1 conc 200 (factor Xa): 1% | rsd. Xa hne; CA #12; stg1 conc 200 (factor Xa): 1% | rsd. Xa no add; CA #12; stg1 conc 200 (factor Xa): 1% | IC50 IIa/UFH; HCA #4 (thrombin): 100 nM | rsd. IIa catG; CA #12; stg1 conc 200 (thrombin): 1% | rsd. IIa hne; CA #12; stg1 conc 200 (thrombin): 79% | rsd. IIa no add; CA #12; stg1 conc 200 (thrombin): 1%

B5: LEAI.479 (other)
chain: SPVDICTAKPRDIPMNPMCIYRSPEKKATEDEGSEQKIPEATNRRVWELSKANSRFATTFYQHLADSKNDNDNIFLSPLSISTAFAMTKLGACNDTLQQLMEVFKFDTISEKTSDQIHFFFAKLNCRLYRKANKASKLVSANRLFGDKSLTFNETYQDISELVYGAKLQPLDFKENAEQSRAAINKWVSNKTEGRITDVIPSEAINELTVLVLVNTIYFKGLWKSKFSPENTRKELFYKADGESCSASMMYQEGKFRYRRVAEGTQVLELPFKGDDITMVLILPKPEKSLAKVEKELTPEVLQEWLDELEEMMLVVHMPRFRIEDGFSLKEQLQDMGLVDLFSPEKSKLPGIVAEGRDDLYVSDAFHKAFLEVNEEGSEAAASTALEAWGRSLNPNRVTFKANRPFLVFIREVPLNTIIFMGRVANPCVK
IC50 fXa/UFH; HCA #3 (factor Xa): 100 nM | IC50 IIa/UFH; HCA #3 (thrombin): 280 nM

B6: 13C.432 (other)
chain: SPVDICTAKPRDIPMNPMCIYRSPEKKATEDEGSEQKIPEATNRRVWELSKANSRFATTFYQHLADSKNDNDNIFLSPLSISTAFAMTKLGACNDTLQQLMEVFKFDTISEKTSDQIHFFFAKLNCRLYRKANKASKLVSANRLFGDKSLTFNETYQDISELVYGAKLQPLDFKENAEQSRAAINKWVSNKTEGRITDVIPSEAINELTVLVLVNTIYFKGLWKSKFSPENTRKELFYKADGESCSASMMYQEGKFRYRRVAEGTQVLELPFKGDDITMVLILPKPEKSLAKVEKELTPEVLQEWLDELEEMMLVVHMPRFRIEDGFSLKEQLQDMGLVDLFSPEKSKLPGIVAEGRDDLYVSDAFHKAFLEVNEEGSEAAASTELEIAGRSLNPNRVTFKANRPFLVFIREVPLNTIIFMGRVANPCVK
IC50 IIa/UFH; HCA #2 (human thrombin): 460 nM | IC50 fXa/UFH; HCA #2 (human factor Xa): 45 nM

B7: LEAI.471 (other)
chain: SPVDICTAKPRDIPMNPMCIYRSPEKKATEDEGSEQKIPEATNRRVWELSKANSRFATTFYQHLADSKNDNDNIFLSPLSISTAFAMTKLGACNDTLQQLMEVFKFDTISEKTSDQIHFFFAKLNCRLYRKANKASKLVSANRLFGDKSLTFNETYQDISELVYGAKLQPLDFKENAEQSRAAINKWVSNKTEGRITDVIPSEAINELTVLVLVNTIYFKGLWKSKFSPENTRKELFYKADGESCSASMMYQEGKFRYRRVAEGTQVLELPFKGDDITMVLILPKPEKSLAKVEKELTPEVLQEWLDELEEMMLVVHMPRFRIEDGFSLKEQLQDMGLVDLFSPEKSKLPGIVAEGRDDLYVSDAFHKAFLEVNEEGSEAAASTALEARGRSLNPNRVTFKANRPFLVFIREVPLNTIIFMGRVANPCVK
IC50 fXa/UFH; HCA #2 (factor Xa): 275 nM | IC50 fXa/UFH; HCA #3 (factor Xa): 320 nM | rsd. Xa catG; CA #12; stg1 conc 200 (factor Xa): 48% | rsd. Xa catG; CA #14; stg1 conc 200 (factor Xa): 59% | rsd. Xa catG; CA #15; stg1 conc 200 (factor Xa): 82% | rsd. Xa hne; CA #12; stg1 conc 200 (factor Xa): 86% | rsd. Xa hne; CA #14; stg1 conc 200 (factor Xa): 100% | rsd. Xa hne; CA #15; stg1 conc 200 (factor Xa): 103% | rsd. Xa no add; CA #12; stg1 conc 200 (factor Xa): 45% | rsd. Xa no add; CA #14; stg1 conc 200 (factor Xa): 44% | rsd. Xa no add; CA #15; stg1 conc 200 (factor Xa): 57% | IC50 IIa/UFH; HCA #2 (thrombin): 37 nM | IC50 IIa/UFH; HCA #3 (thrombin): 35 nM | rsd. IIa catG; CA #12; stg1 conc 200 (thrombin): 0% | rsd. IIa catG; CA #14; stg1 conc 200 (thrombin): 1% | rsd. IIa catG; CA #15; stg1 conc 200 (thrombin): 1% | rsd. IIa hne; CA #12; stg1 conc 200 (thrombin): 62% | rsd. IIa hne; CA #14; stg1 conc 200 (thrombin): 41% | rsd. IIa hne; CA #15; stg1 conc 200 (thrombin): 65% | rsd. IIa no add; CA #12; stg1 conc 200 (thrombin): 0% | rsd. IIa no add; CA #14; stg1 conc 200 (thrombin): 2% | rsd. IIa no add; CA #15; stg1 conc 200 (thrombin): 2%

B8: LEAQ.521 (other)
chain: SPVDICTAKPRDIPMNPMCIYRSPEKKATEDEGSEQKIPEATNRRVWELSKANSRFATTFYQHLADSKNDNDNIFLSPLSISTAFAMTKLGACNDTLQQLMEVFKFDTISEKTSDQIHFFFAKLNCRLYRKANKASKLVSANRLFGDKSLTFNETYQDISELVYGAKLQPLDFKENAEQSRAAINKWVSNKTEGRITDVIPSEAINELTVLVLVNTIYFKGLWKSKFSPENTRKELFYKADGESCSASMMYQEGKFRYRRVAEGTQVLELPFKGDDITMVLILPKPEKSLAKVEKELTPEVLQEWLDELEEMMLVVHMPRFRIEDGFSLKEQLQDMGLVDLFSPEKSKLPGIVAEGRDDLYVSDAFHKAFLEVNEEGSEAAASTHLEAQGRSLNPNRVTFKANRPFLVFIREVPLNTIIFMGRVANPCVK
IC50 IIa/UFH (HCA #6) (human thrombin): 100 nM | IC50 fXa/UFH (HCA #6) (human factor Xa): 25 nM

B9: LEAI (other)
chain: SPVDICTAKPRDIPMNPMCIYRSPEKKATEDEGSEQKIPEATNRRVWELSKANSRFATTFYQHLADSKNDNDNIFLSPLSISTAFAMTKLGACNDTLQQLMEVFKFDTISEKTSDQIHFFFAKLNCRLYRKANKASKLVSANRLFGDKSLTFNETYQDISELVYGAKLQPLDFKENAEQSRAAINKWVSNKTEGRITDVIPSEAINELTVLVLVNTIYFKGLWKSKFSPENTRKELFYKADGESCSASMMYQEGKFRYRRVAEGTQVLELPFKGDDITMVLILPKPEKSLAKVEKELTPEVLQEWLDELEEMMLVVHMPRFRIEDGFSLKEQLQDMGLVDLFSPEKSKLPGIVAEGRDDLYVSDAFHKAFLEVNEEGSEAAASTALEAIGRSLNPNRVTFKANRPFLVFIREVPLNTIIFMGRVANPCVK
IC50 fXa/UFH; HCA #2 (factor Xa): 37 nM | IC50 IIa/UFH; HCA #2 (thrombin): 45 nM

B10: LEAI.481 (other)
chain: SPVDICTAKPRDIPMNPMCIYRSPEKKATEDEGSEQKIPEATNRRVWELSKANSRFATTFYQHLADSKNDNDNIFLSPLSISTAFAMTKLGACNDTLQQLMEVFKFDTISEKTSDQIHFFFAKLNCRLYRKANKASKLVSANRLFGDKSLTFNETYQDISELVYGAKLQPLDFKENAEQSRAAINKWVSNKTEGRITDVIPSEAINELTVLVLVNTIYFKGLWKSKFSPENTRKELFYKADGESCSASMMYQEGKFRYRRVAEGTQVLELPFKGDDITMVLILPKPEKSLAKVEKELTPEVLQEWLDELEEMMLVVHMPRFRIEDGFSLKEQLQDMGLVDLFSPEKSKLPGIVAEGRDDLYVSDAFHKAFLEVNEEGSEAAASTALEAGGRSLNPNRVTFKANRPFLVFIREVPLNTIIFMGRVANPCVK
IC50 fXa/UFH; HCA #3 (factor Xa): 24 nM | IC50 IIa/UFH; HCA #3 (thrombin): 220 nM
